Data reported in patent US20130095071A1, “METHOD OF TREATING OR PREVENTING HEARING LOSS” (Audigen Inc., priority 2009, published 2013).

Key:
[1] = test system: cochlear hair cells; experiment: Enzyme facilitated cochlear gene transfection with AAV through round window membrane; type: in vivo, guinea pig; conditions: after digestion of RWM
Description: (§1) The reaction time was 10 minutes.
For inner ear gene transfection, a piece of gelfoam (1-2 mm^3) was placed gently on RWM. 5 ul AAV solution was applied to the gelfoam. The cochlea was taken out for cochlea immunostaining against GFP 2-4 weeks after the surgical application of AAV vectors.
The transfection is through intact round window membrane (RWM). Under appropriate anesthesia, a cut of 2 cm is made posterior to the earlap and the soft tissue is distracted to expose the mastoid. The round window of the guinea pig is exposed by drilling a small hole of 2-3 mm in diameter on the mastoid. Solution of collagenase II is freshly prepared at concentration of 150 units/ml. With the help of a microinjection pump, a total of 10 μl enzyme solution is applied to the round window niche at a flow rate of 10 nl/sec. After reaction time of 10 minutes, residual enzyme solution is sucked out first using suction pump and then use gelfoam. […] Hearing status is evaluated using audiotory brainstem response (ABR).
The transfection is evaluated 2 weeks after the surgery. […] GFP positive hair cells are counted along the length of the cochlear duct. […]
A post-auricular approach was used to expose the tympanic bony bulla. […] The duration for the digestive treatment varied from 5 to 10 minutes and the quantity of the digestive solution 5 to 10 μl. […]

[2] = Safety of enzyme digestion of RWM: ABR before and after surgery; type: in vivo, guinea pig; conditions: 12 ears, 2-4 weeks after surgery
Description: as §1
ABR was tested in animals underwent gene transfection before and just before the animal was killed for morphology.
The transfection is through intact round window membrane (RWM). Under appropriate anesthesia, a cut of 2 cm is made posterior to the earlap and the soft tissue is distracted to expose the mastoid. The round window of the guinea pig is exposed by drilling a small hole of 2-3 mm in diameter on the mastoid. Solution of collagenase II is freshly prepared at concentration of 150 units/ml. With the help of a microinjection pump, a total of 10 μl enzyme solution is applied to the round window niche at a flow rate of 10 nl/sec. After reaction time of 10 minutes, residual enzyme solution is sucked out first using suction pump and then use gelfoam. A piece of gelfoam (2-3 mm^3) is placed upon RWM and then 5 μl AAV-GFP is applied to the gelfoam. The hole of mastoid is covered by suturing the soft tissue. Hearing status is evaluated using audiotory brainstem response (ABR).

[3] = SEM/TEM examination of round window membrane after enzyme digestion

For collagenase, the “permeability of RWM to AAV” value [1] was “makes RWM permeable to AAV”, the ABR threshold shift ([2]; 32, 48 kHz) was “less than 15 dB” and the hearing loss ([2]; other frequencies tested) was “no hearing loss”. For the same substance, the “damage to RWM (SEM, TEM)” value ([3]; 3 weeks after the treatment) was “no difference from normal control” and the “damage to RWM (SEM, TEM)” value ([3]; immediately after the treatment) was “causes damage to the epithelia facing middle ear”.
